Measurements taken from the supplement of paper PMC10126150.
± gives the standard deviation of the averaged measurements.

Tested on: ATP
Experiment: switch fluorescence ratio, 500 uM ATP over buffer (Cy3 cluster intensity, sum of 5 cycles each) (fold (ratio)); higher = stronger signal-on switching upon ATP binding; sequences stand for … in TCGTCGGCAGCGTCAGATGTGTATAAGAGACAGTTTTTTTTTTTTTTTTTTTTTTTTT…TC
Settings: aptamer strand: ATP DNA aptamer (quencher-CACCTGGGGGAGTATTGCGGAGGAAGG + anchor), 100 nM annealed; ATP concentration: 500 uM
How it was run: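 The fluorescence ratio divides summed target-cycle Cy3 intensity by summed buffer-cycle Cy3 intensity for each cluster and is averaged per switch-domain sequence. Cy3-labelled switching-strand clusters on a modified Illumina MiSeq flow-cell were annealed to 100 nM quencher-labelled ATP aptamer, then imaged in selection buffer and again after 15 min with 500 uM ATP at 22 °C. Five such cycles were run, with NaOH stripping and re-annealing between them, and clusters outside 100-1000 RFU were excluded.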
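Note: ATP exposure 15 min at 22 °C before imaging.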

Row | Sequence | switch fluorescence ratio
1 | TTGTGGGGG | 1.0016 ± 0.0009
2 | AACAGTTCTG | 0.986 ± 0.027
3 | GTGGAAGTTG | 0.949 ± 0.041
4 | GTTGGGGCCG | 0.991 ± 0.0068
5 | TGGAAGGATT | 1.01 ± 0.015
6 | AGTGGCATAG | 0.996 ± 0.022
7 | CGATCCAGTG | 1.39 ± 0.061
8 | CGTAGTTTGC | 1.52 ± 0.098
9 | TCGAAGATGT | 0.996 ± 0.019
10 | AGTGGGCTTT | 0.996 ± 0.037
11 | GTCGGAGTCA | 1 ± 0.034
12 | AGCAGCTAAG | 0.995 ± 0.01
13 | TCATGAACAC | 1.01 ± 0.05
14 | TATATTTTGC | 0.994 ± 0.026
15 | GGTACTATAG | 1.034 ± 0.0066
16 | CGATTTTGGA | 0.9941 ± 0.0078
17 | TTCGGAACGG | 0.991 ± 0.027
18 | GGGGAGGTAA | 0.973 ± 0.012
19 | GGTTTAGTGA | 0.998 ± 0.034
20 | GATGACGTCC | 1.04 ± 0.069
21 | GGTGACACTT | 0.996 ± 0.033
22 | TTGGGTAAAT | 0.985 ± 0.031
23 | ATGGGGGGCT | 0.987 ± 0.028

Row | Sequence | switch fluorescence ratio
24 | CCAATTTTGG | 0.977 ± 0.013
25 | GGAAGAAGAT | 0.982 ± 0.033
26 | ATTTAAAATC | 0.9614 ± 0.0045
27 | TTGTAGTGGG | 1.02 ± 0.048
28 | CGGGCAACGT | 1.02 ± 0.037
29 | TTGGCTTTGG | 0.967 ± 0.0056
30 | GTTTAAGTTA | 0.991 ± 0.025
31 | GGATTAGGGT | 0.975 ± 0.019
32 | TTGGGGATTC | 0.991 ± 0.02
33 | GGTGTTTCGG | 0.966 ± 0.014
34 | CGGCCCACGC | 1.04 ± 0.082
35 | CAGCAGATTA | 1.04 ± 0.018
36 | GGTTGACCTG | 1 ± 0.032
37 | GTGCTATCTA | 1 ± 0.023
38 | TGAGCGGGTA | 1.024 ± 0.0052
39 | TTTGCTATAT | 1.18 ± 0.33
40 | CCAAGGCGAT | 2.33 ± 1.8
41 | AAGGTCCGCG | 1.08 ± 0.027
42 | CACTAGTCTG | 1.01 ± 0.033
43 | TGCATTCATT | 0.9937 ± 0.0093
44 | AGAAGATTGT | 0.989 ± 0.013
45 | AAATGTAAGG | 0.99 ± 0.034
46 | GTGGTCTTGA | 0.981 ± 0.028

Row | Sequence | switch fluorescence ratio
47 | GGAGGATTTA | 0.984 ± 0.042
48 | ACTTGGGCAT | 0.993 ± 0.028
49 | TTTCGTGGCA | 1.02 ± 0.066
50 | GATGGCTACG | 1.01 ± 0.024
51 | GAGTTCAGGA | 1 ± 0.021
52 | ACTTGGCTGT | 0.99842 ± 0.00092
53 | ATTTGTGGGA | 1 ± 0.029
54 | CTGGGCACAT | 1.05 ± 0.015
55 | GACGCGTGTG | 1.03 ± 0.042
56 | TTGTAATGTT | 1.01 ± 0.051
57 | TTTGTAGCCG | 1.01 ± 0.061
58 | CGGAGAGTAG | 1.03 ± 0.018
59 | TCTCGGTGAG | 0.99 ± 0.051
60 | TTATCATATA | 1.06 ± 0.057
61 | TCTTATTTTT | 1.01 ± 0.025
62 | TAGAAAATGG | 1 ± 0.029
63 | CCTTGAGGGA | 1.06 ± 0.11
64 | CGCTCACGGT | 1.066 ± 0.0026
65 | AGGGTTGCTG | 1.05 ± 0.074
66 | GCTTTTTGC | 0.951 ± 0.065
67 | CAGGAGGAAT | 1.242 ± 0.0098
68 | GACTAATTAA | 0.978 ± 0.036
69 | AAACGGAGGG | 0.996 ± 0.038

Row | Sequence | switch fluorescence ratio
70 | TGAGTCGAGC | 1.014 ± 0.0066
71 | GACTAACTAC | 1.251 ± 0.0087
72 | ATTACTGGGG | 0.99 ± 0.019
73 | TGACTTGGCG | 1.026 ± 0.0087
74 | TAAAGTATTT | 1.04 ± 0.073
75 | CGGTTACGGA | 0.977 ± 0.035
76 | GCGCGGTGGC | 1.09 ± 0.015
77 | TACTGGAGTA | 1.01 ± 0.018
78 | GGGTTGGGGG | 1 ± 0.032
79 | CGGGCGGGGG | 1.06 ± 0.12
80 | GTTATACGTA | 1.03 ± 0.019
81 | TTTGGGAGGA | 1.02 ± 0.047
82 | TTGAGGACGG | 1.03 ± 0.016
83 | CGTGGTAGGG | 0.992 ± 0.035
84 | GGGAATTTGT | 0.9942 ± 0.0096
85 | AACTCTAAAA | 1.05 ± 0.051
86 | GGAAGGAGGA | 0.973 ± 0.015
87 | ATGCTAGGGT | 0.9905 ± 0.0055
88 | TGACATAGGT | 1.02 ± 0.019
89 | AACGGAACTA | 1.15 ± 0.019
90 | CTTGGTTGCT | 0.997 ± 0.032
91 | TGTTACGTTT | 0.992 ± 0.021
92 | CCGGGGTAAG | 1.03 ± 0.029

Row | Sequence | switch fluorescence ratio
93 | TTATAAGTGT | 0.963 ± 0.035
94 | AAGTATCGAC | 1.05 ± 0.023
95 | AAGGGGGCGG | 1 ± 0.015
96 | GACTTTAGGG | 1.02 ± 0.065
97 | ATAAGTGCTG | 0.991 ± 0.017
98 | GAGATAGAGA | 1.02 ± 0.03
99 | CTAGGATCGG | 0.993 ± 0.057
100 | CTGGTAGAGG | 0.979 ± 0.048
101 | GTTAAATTTT | 0.986 ± 0.024
102 | ATGATCTGCT | 0.946 ± 0.03
103 | GTGAGGGTGA | 1 ± 0.011
104 | GATTGGGGAT | 0.992 ± 0.02
105 | AAGGCGGGGA | 1.017 ± 0.0051
106 | AGGGCACAGT | 0.995 ± 0.016
107 | CCGGATCGCG | 1.043 ± 0.0047
108 | CCGTGGGGTA | 0.974 ± 0.031
109 | ATTACTAAAT | 1.01 ± 0.02
110 | GTAATGCTTA | 1.011 ± 0.005
111 | CCTGTAATGT | 1.12 ± 0.042
112 | GGGGAGGAAG | 0.997 ± 0.012
113 | GCGGTGACCG | 0.9978 ± 0.0046
114 | AGGGCTGGGT | 1 ± 0.033
115 | TGACTACCAT | 1.07 ± 0.08

Row | Sequence | switch fluorescence ratio
116 | TTGTTGTGTT | 1.005 ± 0.0098
117 | GGCCACGGGG | 0.991 ± 0.0054
118 | TATTCGCATC | 2.12 ± 0.41
119 | CGGGTTGAG | 0.9967 ± 0.0066
120 | GGGGTCAACG | 0.963 ± 0.035
121 | TTACATTGAG | 0.976 ± 0.015
122 | TAATTAGTTA | 0.992 ± 0.025
123 | CGATGTGTGC | 1.17 ± 0.0054
124 | GGGTTGTCGT | 1.01 ± 0.062
125 | GATACTGGGG | 1.01 ± 0.028
126 | GTTTGTGTCC | 0.965 ± 0.079
127 | TTAGAAAGAA | 0.976 ± 0.013
128 | AGGGTGTGGC | 1.0304 ± 0.00027
129 | AGCTCTGCGA | 1.09 ± 0.039
130 | AGATGGATTT | 0.963 ± 0.0091
131 | TGAATATATG | 1.02 ± 0.032
132 | ATGTATAGAG | 1.03 ± 0.026
133 | ACATTGATCG | 1.03 ± 0.017
134 | TGGTCTTCAT | 1 ± 0.022
135 | GCGACTTGGG | 1.04 ± 0.054
136 | GCAAAGTCTG | 0.984 ± 0.046
137 | AGGCAATTGT | 1.026 ± 0.01
138 | CGACCAGATA | 1.078 ± 0.0037

Row | Sequence | switch fluorescence ratio
139 | TGACCCTATA | 1.06 ± 0.028
140 | GGACGGGGGC | 1 ± 0.016
141 | GTGTATAGTG | 0.982 ± 0.018
142 | CAGATGGGTA | 0.971 ± 0.025
143 | TCGATATTTA | 0.982 ± 0.02
144 | ACCACCAGAA | 1.13 ± 0.02
145 | GTAAGTATGT | 1.01 ± 0.011
146 | ACTTGGTCGT | 1.04 ± 0.012
147 | GACCGCAGCA | 4.22 ± 0.49
148 | TTGGTTTACC | 0.957 ± 0.011
149 | ATATGACGGT | 0.98 ± 0.029
150 | AGAATGGGTG | 1.05 ± 0.036
151 | CCGGGGCCTA | 1.05 ± 0.026
152 | GAGCGATGTC | 1.07 ± 0.035
153 | GACCATGAAA | 0.96295 ± 0.0008
154 | CAGTCCGGGC | 0.991 ± 0.028
155 | CAGTTAATTG | 1.03 ± 0.013
156 | CGTTGGTGTG | 1 ± 0.028
157 | GGGTACTTGG | 0.99 ± 0.026
